# Results published in paper PMC6954210.
# B1: perilipin 1 (PLIN1): OGT overexpression (protein)
# parent chain: MSMNKGPTLLDGDLPEQENVLQRVLQLPVVSGTCECFQKTYNSTKEAHPLVASVCNAYEKGVQGASNLAAWSMEPVVRRLSTQFTAANELACRGLDHLEEKIPALQYPPEKIASELKGTISTRLRSARNSISVPIASTSDKVLGATLAGCELALGMAKETAEYAANTRVGRLASGGADLALGSIEKVVEFLLPPDKESAPSSGRQRTQKAPKAKPSLVRRVSTLANTLSRHTMQTTAWALKQGHSLAMWIPGVAPLSSLAQWGASAAMQVVSRRQSEVRVPWLHNLAASQDESHDDQTDTEGEETDDEEEEEESEAEENVLREVTALPNPRGLLGGVVHTVQNTLRNTISAVTWAPAAVLGTVGRILHLTPAQAVSSTKGRAMSLSDALKGVTDNVVDTVVHYVPLPRLSLMEPESEFRDIDNPSAEAERKGSGARPASPESTPRPGQPRGSLRSVRGLSAPSCPGLDDKTEASARPGFLAMPREKPARRVSDSFFRPSVMEPILGRAQYSQLRKKS
# B2: perilipin 1 (PLIN1): OGT AKO (eWAT) (protein)
# parent chain: B1 parent chain
# B3: perilipin 1 (PLIN1): OGT AKO (protein)
# parent chain: B1 parent chain
# B4: perilipin 1 (PLIN1): OGT knockout (protein)
# parent chain: B1 parent chain
# B5: perilipin 1 (PLIN1): OGT AKI (adipose rOGT knockin) (protein)
# parent chain: B1 parent chain
# B6: perilipin 1 (PLIN1): OGT AKO (iWAT) (protein)
# parent chain: B1 parent chain
# Tests used:
# [1] = IP, p-Ser Western blot, IBMX/Fsk-treated HeLa; settings: glycan gained; control: no OGT overexpression
# [2] = IP, p517 Western blot, IBMX/Fsk stimulation; settings: glycan gained; control: no OGT overexpression
# [3] = p517 Western blot, fat of 6 h fasted mice; settings: glycan lost; control: WT mice
# [4] = Western blot of PLIN1 in iWAT; settings: glycan lost; control: WT mice
# [5] = p492/p517 immunofluorescence, IBMX/Fsk-treated primary eWAT adipocytes; settings: glycan lost; control: WT adipocytes
# [6] = IP of endogenous PLIN1, p517 Western blot; settings: glycan gained; control: WT mice
protein,measurement,setting,value
B1,other: PLIN1 phosphorylation,[1],decreases
same,other: PLIN1 phosphorylation,[2],abolishes
B2,other: PLIN1 phosphorylation,[3],increases
B3,expression_or_secretion,[4],no change
B4,other: PLIN1 phosphorylation,[5],increases
B5,other: PLIN1 phosphorylation,[6],decreases
B6,other: PLIN1 phosphorylation,[3],no change
